Test results taken from paper PMC8810855 (2022).

B1: Hybrid_WH2_C-helix (N-WASP WH2 domain and C-helix with linker and A domain of Arpin) (other)
chain: PVSCSGRDALLDQIRQGIQLKSVADGQESTPPTPAPTSGIVGALMEVMQKRSKAIAAAEIREQGDGAEDEEWDD
B2: Arpin_CA (Arpin residues S194-D226) (domain or fragment)
chain: SWTDNIMAQKSSKGAAAEIREQGDGAEDEEWDD

Legend:
[1] = biological target: T1, Arp2/3 complex (bovine brain) (bovine, UniProt P61157 1-418; A7MB62 1-394; Q58CQ2 1-372; Q3MHR7 1-300; Q3T035 1-178; Q148J6 …); test: ITC; ATP; second, low-affinity site (Kd2)
[2] = biological target: T1, Arp2/3 complex (bovine brain); test: ITC; ATP; high-affinity site (Kd1)
[3] = biological target: T1, Arp2/3 complex (bovine brain); test: ITC; ATP

| Binder | Kd [1] [nM] | Kd [2] [nM] | Kd [3] [nM] |
| --- | --- | --- | --- |
| B1 | 826 | 36.7 |  |
| B2 |  |  | 1710 |
